B1: Double-stranded RNA-binding protein Staufen homolog 1, residues 183 to 249; numbered along this chain, O95793 (parent)
chain: KSEISQVFEIALKRNLPVNFEVARESGPPHMKNFVTKVSVGEFVGEGEGKSKKISKKNAAIAVLEEL

Variants of: B1
Assay: abundance fitness (aPCA) (normalised: wild type 0, dead -1); higher = more abundant; growth selection in yeast, the domain comes from the species named
Conditions: Homo sapiens

Abundance fitness, by site and new letter:
K50: N 0.009, A -0.035, Y -0.187, C -0.036, P 0.078, L -0.132, E -0.004, M -0.117, G -0.184, F -0.406, S -0.007, D -0.17, T -0.048, R -0.006, I -0.145, W -0.221, V -0.127, Q -0.036
G45: C -0.038, F -0.373, H -0.619, T -0.246, S -0.146, K -0.108, D -0.645, Q -0.395, N -0.594, L -0.591, M -0.585, R -0.265, Y -0.422, W -0.582, E -0.484, I -0.487, P -0.975, V -0.345, A 0.069
V44: C 0.033, Q -0.074, E -0.132, Y -0.099, H -0.102, T -0.015, G -0.414, M -0.045, A -0.18, P -0.789, W -0.112, K -0.016, D -0.238, L -0.14, R -0.051, I -0.04, S -0.086, F -0.195
E48: I 0.128, A 0.001, R 0.104, C 0.064, H -0.061, K 0.089, W -0.011, F -0.01, M -0.013, V 0.048, N -0.045, S 0.007, P -0.808, L -0.044, D -0.427, Y 0.002, Q 0.054, T 0.037
G49: Y -1, V -0.694, I -0.791, N -0.748, A -0.485, E -0.74, L -0.802, M -0.729, P -0.854, W -1.14, Q -0.741, D -0.519, H -0.53, F -1.14, T -0.8, S -0.483, C -0.911
G41: T -1.17, W -0.825, Y -1.13, S -0.945
F43: S -0.272, E -0.44, M -0.255, G -0.63, D -0.628, H 0.014, C -0.262, T -0.195, I -0.197, P -0.649, R -0.482, L -0.126, A -0.124, K -0.317, N -0.437
G47: V -0.834, M -0.874, K -0.81, E -0.773, W -1.01, Q -0.611, T -0.868, Y -0.945, I -0.897, S -0.667, R -0.627, F -0.945, P -0.763, H -0.555, C -0.976
E46: M 0.028, G -0.449, T 0.071, V 0.036, I 0.052, A -0.151, W 0.039, F 0.076, C -0.034, H 0.011, S -0.051, Q 0.051, K -0.04, P -0.939, N 0.01, Y -0.013
S51: E -0.553, F -0.929, G -0.791, Q -0.445, L -0.797, P -0.449, H -1, M -0.587, K -0.344, I -0.904
E42: G 0.011, C -0.161, M -0.1, W -0.3, F -0.355, P 0.053, D -0.137, I -0.407, R -0.032, L -0.255, K -0.046, S 0.028, Y -0.131, T -0.048, H 0.014, A 0.016, Q -0.05
